Assays:
[1] = molecular target: T1, BoNT/B light chain (LC), yeast displayed (Clostridium botulinum, UniProt P10844 1-441); test: labeled detection mAb in flow cytometry sorting
T1 sequence: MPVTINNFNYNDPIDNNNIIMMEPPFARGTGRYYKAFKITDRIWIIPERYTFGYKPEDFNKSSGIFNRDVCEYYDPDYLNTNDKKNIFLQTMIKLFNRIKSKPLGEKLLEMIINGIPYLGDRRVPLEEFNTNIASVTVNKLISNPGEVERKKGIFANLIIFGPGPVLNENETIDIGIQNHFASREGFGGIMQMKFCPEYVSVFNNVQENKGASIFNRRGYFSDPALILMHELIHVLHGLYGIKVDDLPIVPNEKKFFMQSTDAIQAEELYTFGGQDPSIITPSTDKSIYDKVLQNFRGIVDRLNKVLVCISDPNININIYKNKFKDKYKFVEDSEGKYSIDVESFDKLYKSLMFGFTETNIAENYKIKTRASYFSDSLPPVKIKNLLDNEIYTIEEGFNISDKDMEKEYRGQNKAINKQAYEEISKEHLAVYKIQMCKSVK

[2] = molecular target: T2, BoNT/B translocation domain (HN), yeast displayed (Clostridium botulinum, UniProt P10844 442-857); test: soluble scFv or IgG on yeast-displayed BoNT/B domains
T2 sequence: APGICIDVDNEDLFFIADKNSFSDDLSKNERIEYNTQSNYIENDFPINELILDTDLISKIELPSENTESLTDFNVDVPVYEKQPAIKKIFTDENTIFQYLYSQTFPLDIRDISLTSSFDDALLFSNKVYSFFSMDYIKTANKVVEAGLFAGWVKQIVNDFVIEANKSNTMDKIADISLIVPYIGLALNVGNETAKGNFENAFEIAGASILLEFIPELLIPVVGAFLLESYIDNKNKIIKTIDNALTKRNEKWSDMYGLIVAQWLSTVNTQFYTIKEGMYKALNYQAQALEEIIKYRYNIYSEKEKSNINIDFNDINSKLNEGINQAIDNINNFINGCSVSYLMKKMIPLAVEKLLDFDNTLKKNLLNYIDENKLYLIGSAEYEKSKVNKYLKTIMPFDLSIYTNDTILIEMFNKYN

[3] = molecular target: T1, BoNT/B light chain (LC), yeast displayed; test: as above
[4] = molecular target: T1, BoNT/B light chain (LC), yeast displayed; test: yeast-displayed scFv
[5] = molecular target: Botulinum neurotoxin type B, subtype B2 (BoNT/B2) (Clostridium botulinum); test: flow cytometry, yeast-displayed Fab against yeast-displayed scFv
[6] = molecular target: T2, BoNT/B translocation domain (HN), yeast …; test: IgG/Fab on yeast-displayed toxin domain, flow cytometry
[7] = molecular target: T3, Botulinum neurotoxin type B, subtype B1 (BoNT/B1) (Clostridium botulinum, UniProt P10844 2-1291); test: flow cytometry, yeast-displayed Fab
T3 sequence: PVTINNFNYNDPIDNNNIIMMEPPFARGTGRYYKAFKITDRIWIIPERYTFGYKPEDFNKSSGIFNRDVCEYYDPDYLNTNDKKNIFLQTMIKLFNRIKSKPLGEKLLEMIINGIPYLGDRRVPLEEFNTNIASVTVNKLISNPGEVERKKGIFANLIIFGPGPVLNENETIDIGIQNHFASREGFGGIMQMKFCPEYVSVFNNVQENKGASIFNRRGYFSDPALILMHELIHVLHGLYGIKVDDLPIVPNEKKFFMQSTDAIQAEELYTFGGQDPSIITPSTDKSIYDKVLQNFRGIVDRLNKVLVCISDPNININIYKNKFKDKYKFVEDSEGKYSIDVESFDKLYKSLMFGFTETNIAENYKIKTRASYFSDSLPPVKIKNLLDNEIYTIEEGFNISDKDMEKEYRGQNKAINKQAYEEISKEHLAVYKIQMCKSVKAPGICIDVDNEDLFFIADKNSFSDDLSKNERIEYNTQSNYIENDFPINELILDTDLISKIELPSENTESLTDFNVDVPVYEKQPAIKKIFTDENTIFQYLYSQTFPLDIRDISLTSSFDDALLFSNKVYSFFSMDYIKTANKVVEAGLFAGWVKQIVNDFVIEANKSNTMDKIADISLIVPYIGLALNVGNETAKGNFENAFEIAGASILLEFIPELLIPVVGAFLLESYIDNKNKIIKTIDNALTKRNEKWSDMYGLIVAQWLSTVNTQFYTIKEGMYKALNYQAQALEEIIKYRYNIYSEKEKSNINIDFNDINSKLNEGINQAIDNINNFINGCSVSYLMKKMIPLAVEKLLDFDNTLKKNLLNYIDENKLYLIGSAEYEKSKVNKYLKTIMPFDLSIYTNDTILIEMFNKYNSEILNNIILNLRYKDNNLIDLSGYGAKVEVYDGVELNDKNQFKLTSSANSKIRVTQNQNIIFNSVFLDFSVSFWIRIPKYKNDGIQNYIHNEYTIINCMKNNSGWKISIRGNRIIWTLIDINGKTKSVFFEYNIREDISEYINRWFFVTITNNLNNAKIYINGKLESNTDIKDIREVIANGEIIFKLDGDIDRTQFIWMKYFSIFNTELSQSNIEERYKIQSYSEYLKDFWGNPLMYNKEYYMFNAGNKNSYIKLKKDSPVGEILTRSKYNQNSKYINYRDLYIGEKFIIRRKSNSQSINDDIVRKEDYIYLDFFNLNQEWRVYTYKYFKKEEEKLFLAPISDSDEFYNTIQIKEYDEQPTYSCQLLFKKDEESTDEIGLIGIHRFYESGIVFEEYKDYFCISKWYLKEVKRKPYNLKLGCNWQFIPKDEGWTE

[8] = molecular target: T2, BoNT/B translocation domain (HN), yeast …; test: yeast-displayed scFv
[9] = molecular target: T3, Botulinum neurotoxin type B, subtype B1 …

B1: 6A12 IgG (antibody, V domains shown)
VH: QVQLVESGGGVVQPGRSLRLSCAASGFTFSSYGMHWVRQAPGKGLEWVSYISSSGSTIYYADSVKGRFTISRDNAKNSLYLQMNSLRAEDTAVYYCARVSIVGGPYGMDVWGQGTTVTVSS
VL: DIQMTQSPSSVSASVGNRVTITCRASQGISSWLAWYQQKPGKAPKLLIYAASSLQSGVPSRFSGSGSGTDFTLTISSLQPEDFATYYCQKANSFPLTFGGGTKMEIKR
- binding result [1]: binds

B2: 1B18 scFv (scFv)
scFv: EVQLVQSGGGLVQPGGSRRLSCAASGFYFNAYWMTWVRQAPGKGLEWVANINLDGTEIYYLDSVKGRFTVSRDNVKNSVFLQMSSLRVEDTAVYFCARLEWGGRNGWVSPWGQGTLVTVSSGGGGSGGGGSGGGGSDVVMTQSPSSVSASVGDRVTITCRASQSISSYLNWYQQRPGKAPKLLIFAASSLQSAVPSRFSGSGSGTDFTLTISSLQPEDFATYYCQQSYSTPPTFGQGTKVEIK
- binding result [2]: binds

B3: A12 IgG (antibody, V domains shown)
VH: EVQLVESGGGVVQPGRSLRLSCAASGFTFSSYGMHWVRQAPGKGLEWVAVIWYDGSNKYYADSVKGRFTISRDNSKNTLYLQMNSLRAEDTAVYYCARGYSNYDYYYGMDVWGQGTTVTVSS
VL: DIQMTQSPSSLSASVGDRVTITCRASQRISNYLNWYQQKPGKAPKLLIYAASSLQSEVPSRFSGSGSGTDFTLTISSLQPEDFATYYCQQSYRPPLTFGGGTKVEIKR
- binding result [1]: binds

B4: 2B29 scFv (scFv)
scFv: QVQLQESGPGLVKPSETLSLTCSVSGGSINSGTYYWTWIRQHPGKGLEWIGYIYYSGTTYYNPSLKSRVSMSVDTSKNLFSLKMNSVTAADTALYYCARGNPQYDTSGSYTGLYFDFWGQGTLVTVSSGGGGSGGGGSGGGGSQPVLTQSPSASGTPGQRVTISCSGSSSNLGSNTVSWYQQLPGTAPKLLIYSNNQRPSGVPDRFSGSKSGTSASLAISGLQSEDEADYYCATWDDSLSGGVFGGGTKLTVL
- binding result [3]: binds

B5: B6 scFv (scFv)
scFv: QVQLVQSGAEVKKPGESLVISCKASGDKDTFTSFWIAWVRQMPGKGLEWMGIIYAGDSDTRYSPSFQGHVNISVDRSTNTAYLQWSSLKASDTAMYYCARHDSRYKYFYFGMDVWGQGTTVTVSSGGGGSGGGGSGGGGSDVVMTQSPSSLSASVGDRITITCQAGQDISNFLNWYQQKPGKAPKLLIRDASNLETGVPSRFSGGGSGTHFTFTISSLHPEDIATYFCQQYDNLPYTFGQGTKLEIK
- binding result [4]: binds

B6: B11 Fab (Fab, V domains shown)
VH: QVQLLQSAGGVVQPGRSLRLSCAASGFIFRTYGMHWVRQAPGKGLEWVAFVSSDGNNKFYSDSVKGRFTIPRDNAKNTLYLQMNSLETEDTAVYYCAKDRYPIDCSGGSCFSYGMDVWGQGTTVTVSS
VL: DIVMTQSPSTLSASVGDRVTVTCRASQSINSWLAWYQQKPGKAPKLLIYEASSLESGVPSRFSGSGSGTEFTLTISSLQPDDFATYYCQQYDSYWLTFGGGTKVEIKR
- fold higher affinity than the scFv [5]: 1.46 fold

B7: 4E17.1 IgG (antibody, V domains shown)
VH: EVQLVRSGGNLVQPGGSLRLSCAATGPIGSHWMTWVRQAPGQGLEWVANINLDGTEKFYVDSVKGRFTVSRDNRKSSVFLQMNNLRVDDTAVYYCARLQWGGYNGWLSPWGQGTLVTVSS
VL: DIVMTQSPSSLSASVGDRVTISCRASQSIRHYVNWYQQKPGKAPKLLIYKASSLASGAPSRFSGSGSGTDFTLTISSLQPDDFATYYCQQSYSIPLTFGGGTKVEIKR
- binding result [6]: binds

B8: B6 Fab (Fab, V domains shown)
VH: QVQLVQSGAEVKKPGESLVISCKASGDKDTFTSFWIAWVRQMPGKGLEWMGIIYAGDSDTRYSPSFQGHVNISVDRSTNTAYLQWSSLKASDTAMYYCARHDSRYKYFYFGMDVWGQGTTVTVSS
VL: DVVMTQSPSSLSASVGDRITITCQAGQDISNFLNWYQQKPGKAPKLLIRDASNLETGVPSRFSGGGSGTHFTFTISSLHPEDIATYFCQQYDNLPYTFGQGTKLEIKR
- binding result [7]: binds

B9: B11 scFv (scFv)
scFv: QVQLLQSAGGVVQPGRSLRLSCAASGFIFRTYGMHWVRQAPGKGLEWVAFVSSDGNNKFYSDSVKGRFTIPRDNAKNTLYLQMNSLETEDTAVYYCAKDRYPIDCSGGSCFSYGMDVWGQGTTVTVSSGGGGSGGGGSGGGGSDIVMTQSPSTLSASVGDRVTVTCRASQSINSWLAWYQQKPGKAPKLLIYEASSLESGVPSRFSGSGSGTEFTLTISSLQPDDFATYYCQQYDSYWLTFGGGTKVEIK
- binding result [8]: binds

B10: 1B11 scFv (scFv)
scFv: B9 scFv
- binding result [2]: binds

B11: 4B19.1 IgG (antibody, V domains shown)
VH: QVQLVQSGAEVKKPGASVNVSCKASGYTFTGYYIYWVRQAPGQGLEWMGWINPNSGVTKYAQKFQGRVTMTIDTSTNTAYMELNRLRADDTAVYYCAREWTQLWSPYDYWGQGTTVTVSS
VL: DIVLTQSPSTLSASVGDRVTISCRASRSIGWYLNWYQQRPGKAPKLLIYAASSLHNGVPSRFSGSGSGTEFTLTISSLQPDDFATYYCQQAFGFPRTFGQGTKVEIKR
- fold increase in affinity, IgG against parental scFv [9]: 2.25 fold
